The source of these data is IntAct's records for PubMed 31515488.

B1: Centrosomal protein POC5 (Homo sapiens), Q8NA72 (parent)
chain: MSSDEEKYSLPVVQNDSSRGSSVSSNLQEEYEELLHYAIVTPNIEPCASQSSHPKGELVPDVRISTIHDILHSQGNNSEVRETAIEVGKGCDFHISSHSKTDESSPVLSPRKPSHPVMDFFSSHLLADSSSPATNSSHTDAHEILVSDFLVSDENLQKMENVLDLWSSGLKTNIISELSKWRLNFIDWHRMEMRKEKEKHAAHLKQLCNQINELKELQKTFEISIGRKDEVISSLSHAIGKQKEKIELMRTFFHWRIGHVRARQDVYEGKLADQYYQRTLLKKVWKVWRSVVQKQWKDVVERACQARAEEVCIQISNDYEAKVAMLSGALENAKAEIQRMQHEKEHFEDSMKKAFMRGVCALNLEAMTIFQNRNDAGIDSTNNKKEEYGPGVQGKEHSAHLDPSAPPMPLPVTSPLLPSPPAAVGGASATAVPSAASMTSTRAASASSVHVPVSALGAGSAATAASEEMYVPRVVTSAQQKAGRTITARITGRCDFASKNRISSSLAIMGVSPPMSSVVVEKHHPVTVQTIPQATAAKYPRTIHPESSTSASRSLGTRSAHTQSLTSVHSIKVVD
B2: Protein Dr1 (Homo sapiens), Q01658 (parent)
chain: MASSSGNDDDLTIPRAAINKMIKETLPNVRVANDARELVVNCCTEFIHLISSEANEICNKSEKKTISPEHVIQALESLGFGSYISEVKEVLQECKTVALKRRKASSRLENLGIPEEELLRQQQELFAKARQQQAELAQQEWLQMQQAAQQAQLAAASASASNQAGSSQDEEDDDDI
partner: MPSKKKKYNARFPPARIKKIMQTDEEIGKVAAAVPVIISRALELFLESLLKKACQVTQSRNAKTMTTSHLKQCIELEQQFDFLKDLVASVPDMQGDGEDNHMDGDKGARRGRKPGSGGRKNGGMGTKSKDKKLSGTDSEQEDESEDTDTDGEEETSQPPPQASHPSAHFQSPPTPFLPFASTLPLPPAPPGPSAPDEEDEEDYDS
B3: GRIP and coiled-coil domain-containing protein 1 (Homo sapiens), Q96CN9 (parent)
chain: MEKFGMNFGGGPSKKDLLETIETQKKQLLQYQARLKDVVRAYKSLLKEKEALEASIKVLSVSHEADVGLAGVQLPGLTFPDSVDDRCSTHSEDSTGTATSLDTAASLTSTKGEFGVEDDRPARGPPPPKSEEASWSESGVSSSSGDGPFAGGEVDKRLHQLKTQLATLTSSLATVTQEKSRMEASYLADKKKMKQDLEDASNKAEEERARLEGELKGLQEQIAETKARLITQQHDRAQEQSDHALMLRELQKLLQEERTQRQDLELRLEETREALAGRAYAAEQMEGFELQTKQLTREVEELKSELQAIRDEKNQPDPRLQELQEEAARLKSHFQAQLQQEMRKTALAEDQLRQQSQVEEQRVAALENQISEVSELLGTYEKAKQKDQLAIQKLKERILQLDLENKTLALAASSRSPLDSHGEESSLDVNVLKDKMEKLKRLLQVAARKSQVTLDVEKLCDLEIMPSSEAADGEKATALYYQQELKQLKEEFERYKMRAQVVLKSKNTKDGNLGKELEAAQEQLAELKEKYISLRLSCEELEHQHQQEADDWKQELARLQQLHRQELERCQLDFRDRTLKLEEELHKQRDRALAVLTEKDLELEQLRSVALASGLPGRRSPVGGGGPGDPADTSSSDSLTQALQLAAANEPTFFLYAEQLARKEVEITSLRKQKHRLEVEVHQLQDRLLEEGERHREEVAALQSHIEKNIRDQSREGANLEYLKNIIYRFLTLPDSLGRQQTLTAILTILHFSPEEKQVIMRLPTSASWWPSGKR
B4: Lymphokine-activated killer T-cell-originated protein kinase (Homo sapiens), Q96KB5 (parent)
chain: MEGISNFKTPSKLSEKKKSVLCSTPTINIPASPFMQKLGFGTGVNVYLMKRSPRGLSHSPWAVKKINPICNDHYRSVYQKRLMDEAKILKSLHHPNIVGYRAFTEANDGSLCLAMEYGGEKSLNDLIEERYKASQDPFPAAIILKVALNMARGLKYLHQEKKLLHGDIKSSNVVIKGDFETIKICDVGVSLPLDENMTVTDPEACYIGTEPWKPKEAVEENGVITDKADIFAFGLTLWEMMTLSIPHINLSNDDDDEDKTFDESDFDDEAYYAALGTRPPINMEELDESYQKVIELFSVCTNEDPKDRPSAAHIVEALETDV
partner: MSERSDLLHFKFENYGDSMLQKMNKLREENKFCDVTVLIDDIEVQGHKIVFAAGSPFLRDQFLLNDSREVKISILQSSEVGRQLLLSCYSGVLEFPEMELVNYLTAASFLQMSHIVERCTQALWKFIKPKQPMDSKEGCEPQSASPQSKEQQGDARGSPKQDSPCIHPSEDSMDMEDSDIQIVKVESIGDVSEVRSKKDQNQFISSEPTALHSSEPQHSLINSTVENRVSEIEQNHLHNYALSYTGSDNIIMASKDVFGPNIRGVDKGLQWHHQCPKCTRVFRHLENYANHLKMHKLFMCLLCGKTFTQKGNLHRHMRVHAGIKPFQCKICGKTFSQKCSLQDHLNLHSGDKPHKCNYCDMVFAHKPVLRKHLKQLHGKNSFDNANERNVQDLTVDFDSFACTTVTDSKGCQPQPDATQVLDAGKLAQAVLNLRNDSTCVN
B5: Translation initiation factor eIF2B subunit beta (Homo sapiens), P49770 (parent)
chain: MPGSAAKGSELSERIESFVETLKRGGGPRSSEEMARETLGLLRQIITDHRWSNAGELMELIRREGRRMTAAQPSETTVGNMVRRVLKIIREEYGRLHGRSDESDQQESLHKLLTSGGLNEDFSFHYAQLQSNIIEAINELLVELEGTMENIAAQALEHIHSNEVIMTIGFSRTVEAFLKEAARKRKFHVIVAECAPFCQGHEMAVNLSKAGIETTVMTDAAIFAVMSRVNKVIIGTKTILANGALRAVTGTHTLALAAKHHSTPLIVCAPMFKLSPQFPNEEDSFHKFVAPEEVLPFTEGDILEKVSVHCPVFDYVPPELITLFISNIGGNAPSYIYRLMSELYHPDDHVL
B6: Tuftelin-interacting protein 11 (Homo sapiens), Q9UBB9 (parent)
chain: MSLSHLYRDGEGRIDDDDDERENFEITDWDLQNEFNPNRQRHWQTKEEATYGVWAERDSDDERPSFGGKRARDYSAPVNFISAGLKKGAAEEAELEDSDDEEKPVKQDDFPKDFGPRKLKTGGNFKPSQKGFAGGTKSFMDFGSWERHTKGIGQKLLQKMGYVPGRGLGKNAQGIINPIEAKQRKGKGAVGAYGSERTTQSMQDFPVVDSEEEAEEEFQKELSQWRKDPSGSKKKPKYSYKTVEELKAKGRISKKLTAPQKELSQVKVIDMTGREQKVYYSYSQISHKHNVPDDGLPLQSQQLPQSGKEAKAPGFALPELEHNLQLLIDLTEQEIIQNDRQLQYERDMVVNLFHELEKMTEVLDHEERVISNLSKVLEMVEECERRMQPDCSNPLTLDECARIFETLQDKYYEEYRMSDRVDLAVAIVYPLMKEYFKEWDPLKDCTYGTEIISKWKSLLENDQLLSHGGQDLSADAFHRLIWEVWMPFVRNIVTQWQPRNCDPMVDFLDSWVHIIPVWILDNILDQLIFPKLQKEVENWNPLTDTVPIHSWIHPWLPLMQARLEPLYSPIRSKLSSALQKWHPSDSSAKLILQPWKDVFTPGSWEAFMVKNIVPKLGMCLGELVINPHQQHMDAFYWVIDWEGMISVSSLVGLLEKHFFPKWLQVLCSWLSNSPNYEEITKWYLGWKSMFSDQVLAHPSVKDKFNEALDIMNRAVSSNVGAYMQPGARENIAYLTHTERRKDFQYEAMQERREAENMAQRGIGVAASSVPMNFKDLIETKAEEHNIVFMPVIGKRHEGKQLYTFGRIVIYIDRGVVFVQGEKTWVPTSLQSLIDMAK
partner: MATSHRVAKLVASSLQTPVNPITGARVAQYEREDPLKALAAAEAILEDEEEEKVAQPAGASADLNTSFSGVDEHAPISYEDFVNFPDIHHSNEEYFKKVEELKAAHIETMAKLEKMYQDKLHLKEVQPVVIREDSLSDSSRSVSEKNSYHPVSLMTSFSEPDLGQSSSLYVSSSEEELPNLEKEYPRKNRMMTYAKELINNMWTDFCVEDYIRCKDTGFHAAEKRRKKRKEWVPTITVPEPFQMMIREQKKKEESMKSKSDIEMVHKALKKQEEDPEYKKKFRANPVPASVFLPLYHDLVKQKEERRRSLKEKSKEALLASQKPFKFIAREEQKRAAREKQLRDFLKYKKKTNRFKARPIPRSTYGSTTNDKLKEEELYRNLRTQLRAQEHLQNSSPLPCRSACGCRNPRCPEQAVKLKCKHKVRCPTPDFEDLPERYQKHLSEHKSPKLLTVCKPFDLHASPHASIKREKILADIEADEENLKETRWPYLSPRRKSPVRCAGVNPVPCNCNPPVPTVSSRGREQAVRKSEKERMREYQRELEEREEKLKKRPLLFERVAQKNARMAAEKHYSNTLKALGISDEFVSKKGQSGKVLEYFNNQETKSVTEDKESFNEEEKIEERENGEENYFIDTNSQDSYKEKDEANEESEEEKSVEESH

Variants of B1 are the subject of one assay. As to conditions: with cetn1_human CETN1, Q12798.
Consider R302K, for which the “effect of a mutation on the interaction” value is recorded as “with no effect”.
Same read-out and setting: under A446T stands “with no effect”; under I85T, “with no effect”.

The variants in another assay derive from B2. As to conditions: with nc2a_human DRAP1, Q14919.
As for E171D, the “effect of a mutation on the interaction” value is “with no effect”.

A further assay covers variants of B3. As to conditions: with mcrs1_human MCRS1, Q96EZ8.
Consider A274T, for which the “effect of a mutation on the interaction” value is listed as “with no effect”.

Variants of B3 are the subject of the next assay. As to conditions: with amol2_human AMOTL2, Q9Y2J4.
On to A274T, for which the “effect of a mutation on the interaction” value is “with no effect”.

Variants of B4 are the subject of a further assay. As to conditions: with zbt26_human ZBTB26, Q9HCK0.
As for N107S, the “effect of a mutation on the interaction” value is given as “disrupting interaction strength”.
Still for that read-out and setting: under E220D stands “with no effect”.
Still for that read-out and setting: under K87M stands “with no effect”.

In another assay the parent is B5. To be noted: with ei2bd_human EIF2B4, Q9UI10.
Turning to A127V, the “effect of a mutation on the interaction” value is reported as “with no effect”.

The variants in another assay derive from B6. To be noted: with FAM161A.
Consider R8Q, for which the “effect of a mutation on the interaction” value is on record as “with no effect”.
For S688L, the “effect of a mutation on the interaction” value is listed as “with no effect”.
